Laboratory results taken from paper PMC12682122.

Target: alpha-enolase (baker's yeast) (baker's yeast) (UniProt P00924)
Experiment: cross-linking; 1 mg/ml alpha-enolase in PBS with BVSS-Me, BVSS-Et, BVSS-Ph, Alkyne-BVSC or DSBSO (1 mM, 1 h, 37 °C; DSBSO 30 min RT); SDS-PAGE, Coomassie stain; DMSO as negative control

stoichiometry N: 2
Substance: alpha-enolase (baker's yeast) (from UniProt P00924 1-437) (enzyme)
